Measurements from patent US20240076389A1 (NATIONAL RESEARCH COUNCIL OF CANADA, published 2024).

T1: human AXL expressed on the cell surface of tumor cell lines (human, UniProt P30530 26-894)
T1 construct: whole, on cells; also called cell surface-expressed AXL; cell-based AXL
T1 sequence (looked up): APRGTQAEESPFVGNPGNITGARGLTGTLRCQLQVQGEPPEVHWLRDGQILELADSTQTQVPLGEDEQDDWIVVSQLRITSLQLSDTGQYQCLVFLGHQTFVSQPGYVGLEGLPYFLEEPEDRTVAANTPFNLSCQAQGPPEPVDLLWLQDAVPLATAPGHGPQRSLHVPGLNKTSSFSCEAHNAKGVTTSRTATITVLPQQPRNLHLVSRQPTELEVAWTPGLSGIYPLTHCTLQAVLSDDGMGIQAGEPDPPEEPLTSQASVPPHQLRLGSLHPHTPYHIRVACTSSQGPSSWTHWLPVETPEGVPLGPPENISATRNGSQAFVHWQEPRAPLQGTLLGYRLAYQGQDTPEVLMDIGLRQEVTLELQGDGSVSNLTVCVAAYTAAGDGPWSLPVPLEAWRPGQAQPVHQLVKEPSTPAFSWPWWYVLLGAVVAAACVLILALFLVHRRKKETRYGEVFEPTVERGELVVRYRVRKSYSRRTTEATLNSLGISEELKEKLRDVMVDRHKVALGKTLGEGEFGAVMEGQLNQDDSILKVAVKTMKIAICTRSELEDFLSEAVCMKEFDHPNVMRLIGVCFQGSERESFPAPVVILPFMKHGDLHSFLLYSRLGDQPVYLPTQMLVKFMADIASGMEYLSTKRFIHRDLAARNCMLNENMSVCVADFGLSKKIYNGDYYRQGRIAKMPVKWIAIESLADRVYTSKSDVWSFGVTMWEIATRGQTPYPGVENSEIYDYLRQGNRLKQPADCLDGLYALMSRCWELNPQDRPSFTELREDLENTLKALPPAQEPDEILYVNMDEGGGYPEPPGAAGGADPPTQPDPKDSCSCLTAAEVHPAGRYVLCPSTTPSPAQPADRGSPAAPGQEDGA

T2: AXL fragment # 5 (AXL amino acids 321-450, FN III-2+)
T2 chain: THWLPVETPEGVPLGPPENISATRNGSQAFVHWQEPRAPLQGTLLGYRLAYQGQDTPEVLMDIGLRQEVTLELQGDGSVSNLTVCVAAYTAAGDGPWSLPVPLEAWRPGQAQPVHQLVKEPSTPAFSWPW

T3: AXL fragment # 4 (AXL amino acids 219-335, FN III-1)
T3 chain: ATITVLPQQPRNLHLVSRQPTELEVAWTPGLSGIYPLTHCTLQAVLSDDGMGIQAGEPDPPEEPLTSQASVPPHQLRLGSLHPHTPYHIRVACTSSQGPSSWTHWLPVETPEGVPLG

T4: AXL fragment # 1 (AXL amino acids 135-226, IgL2)
T4 chain: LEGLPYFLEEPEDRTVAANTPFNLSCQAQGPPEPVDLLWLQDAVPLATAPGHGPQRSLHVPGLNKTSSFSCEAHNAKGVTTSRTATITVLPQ

T5: AXL fragment # 2 (AXL amino acids 321-429, FN III-2)
T5 chain: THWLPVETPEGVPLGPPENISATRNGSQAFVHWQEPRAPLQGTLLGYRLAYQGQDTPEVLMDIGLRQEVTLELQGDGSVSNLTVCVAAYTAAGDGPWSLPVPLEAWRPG

T6: AXL fragment # 7 (AXL amino acids 135-335, IgL2+FN III-1)
T6 chain: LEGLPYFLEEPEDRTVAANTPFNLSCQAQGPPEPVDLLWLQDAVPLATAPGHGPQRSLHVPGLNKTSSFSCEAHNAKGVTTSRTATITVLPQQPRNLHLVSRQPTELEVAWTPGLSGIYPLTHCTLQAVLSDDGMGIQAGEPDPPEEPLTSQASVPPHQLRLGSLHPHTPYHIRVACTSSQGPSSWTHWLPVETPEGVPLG

T7: AXL fragment # 8 (AXL amino acids 219-450, FN III-1+FN III-2+)
T7 construct: not shown: Yeast display carrier and tags (Aga2p, HA, MYC and any linkers)
T7 chain: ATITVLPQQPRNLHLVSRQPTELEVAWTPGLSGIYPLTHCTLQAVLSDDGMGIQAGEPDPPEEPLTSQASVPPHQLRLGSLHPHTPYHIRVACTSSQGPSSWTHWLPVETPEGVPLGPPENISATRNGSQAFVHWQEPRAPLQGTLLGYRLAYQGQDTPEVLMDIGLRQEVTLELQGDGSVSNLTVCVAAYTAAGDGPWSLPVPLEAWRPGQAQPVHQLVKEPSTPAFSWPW


Key:
[1] = biological target: T1, human AXL expressed on the cell surface …; experiment: flow cytometry on H292 cells, apparent cell binding constant
Experimental: Detection of antibody binding to surface AXL by flow cytometry. Prior to analysis, cells were plated such that they were not more than 80% confluent on the day of analysis. Cells were washed in PBS and harvested by the addition of cell dissociation buffer (Sigma). A cell suspension containing 2.5×10⁵ cells (in 500 μl corresponding cell culture media) was incubated with various concentrations (0.01-10 nM) of anti-AXL antibodies for 2 h at 4° C. (to prevent internalization). Following one wash with cell culture media, primary antibody was incubated with 2 μg DYLIGHT™ 488 conjugated AffiniPure goat anti-mouse IgG Alexa 488 secondary antibody (Jackson ImmunoResearch) in 100 μl of media for 1 h at 4° C. Prior to analysis, cell pellets were re-suspended in 300-500 μl media and filtered through a 50 μm nylon mesh filter to remove cell aggregates. Flow cytometry analyses were performed on 10,000 viable cells gated on forward scattering, side scattering parameters and propidium iodide dye exclusion using a BD LSRII flow Cytometer (Becton-Dickinson Biosciences, CA, USA) and a standard filter set using BD FACSDiva™ acquisition software, according to manufacturer's instructions.
Specific detection of antibody binding was calculated as the mean fluorescent intensity of binding to each primary antibody after background level subtraction of the mean fluorescent intensity of binding in the absence of primary antibody (but containing detection antibody). Binding parameters Bmax, (maximum fluorescence signal at receptor saturation), and KD (apparent cell binding constant) were then determined using a One site—Specific binding with Hill slope model in GraphPad Prism v 6.0.

[2] = biological target: T2, AXL fragment # 5 (AXL amino acids …); experiment: yeast surface display of hAXL fragments, whole yeast cell ELISA, signal normalised to anti-MYC
Excerpt: (§1) Epitope mapping. […] The YSD vector (pPNL6) was from The Pacific Northwest National Laboratory, USA.

[3] = biological target: T3, AXL fragment # 4 (AXL amino acids …); experiment: as above
Excerpt: as §1

[4] = biological target: T4, AXL fragment # 1 (AXL amino acids …); experiment: as above
Excerpt: as §1

[5] = biological target: T5, AXL fragment # 2 (AXL amino acids …); experiment: as above
Excerpt: as §1

[6] = biological target: T6, AXL fragment # 7 (AXL amino acids …); experiment: as above
Excerpt: as §1

[7] = biological target: T7, AXL fragment # 8 (AXL amino acids …); experiment: as above
Excerpt: as §1

Binder	Kd [1] [nM]	binding result [2]	binding result [3]	binding result [4]	binding result [5]	binding result [6]	binding result [7]
F107-8D12 (antibody, V domains shown, also called F107-8D12-2; mAb 8D12) VH: QVQLQQPGAELVKPGASVQLSCKASGYTFISFWINWVKQRPGQGLEWMGNIFPGSSSTNYNEKFKSKATLTVDKSSSTAYMQLSSLTSEDSAVYFCARDYYGGSPDYWGQGTTLTVSS VL: DIVMSQSPSSLAVSAGERVTMSCKSSQSLLNTRTRKNYLAWYQQKPGQSPKLLIYWASTRESGVPDRFTGSGSGTDFTLTISSVQAEDLAVYYCKQSYNLWTFGGGTKLEIK	0.088	no binding	no binding	no binding	no binding	no binding	no binding
F107-7H5 (antibody, V domains shown, also called F107-7H5-2; mAb 7H5) VH: QVQLQQPGAELVKPGASVKLSCKASGYTFTSYWINWVKQRPGQGLEWIGNIYPDSSSTNYNEKFKSKATLTVDKSSTTAYIQFSSLTSEDSAVYYCTRDTYGGSPDYWGQGTTLTVSS VL: DIVMSQSPSSLAVSAGEKVTMSCKSSQSLLNSRTRKIYLAWYQQKPGQSPKLLIYWASTRQSGVPDRFTGSGSGTDFTLTISSVQAEDLAVYYCKQSYNLWTFGGGTKLEIK	0.104	no binding	no binding	no binding	no binding	no binding	no binding
F111-5E9 (antibody, V domains shown, also called F111-5E9-2; mAb 5E9) VH: QIQLVQSGPELKKPGETVKISCKASGYTFTKYGMNWVKQAPGKGLKWMGWINTYTGEPTYADDFKGRFAFSLETSASTAYLQINNLTTEDMVTYFCAKGGYYSNPIYPMDYWGQGTSVTVSS VL: DIQMTQTTSSLSASLGDRVTISCRASQDINNYLNWYQQKPDGTVKLLIYYISRLHSGVPSRFSGSGSGTDYSLTISNLELEDVATYFCQQGNTLPFTFGSGTKLEIK	0.177	no binding	no binding		no binding		no binding
F111-3C8 (antibody, V domains shown, also called F111-3C8-2) VH: QVQLQQPGAELGKPGTSVKLSCKASGYTFTSYWMHWVKRVPGQGLEWIGNINPNSTSADYNEKFKRKATLTVDKSSSTAYMQLSTLTSEDSAVYYCTRPLMGPYWYFDVWGTGTTVTVSS VL: QIVLTQSPAIMSASPGEKVTISCSASSSVSYMYWYQQKPGSSPKPWIYRTSNLASGVPARFSGSGSGTSYSLTISSMEAEDAATYYCQQYHNYPPTFGGGTKLEIK	1.23	no binding	no binding		no binding		no binding
F107-10G1 (antibody, V domains shown, also called F107-10G1-3) VH: EVNLVESGGGVVKPGASLKLSCEASGFTFSNYGMSWVRQTSDKRLEWVASISGGGGRTYYLDNVKGRFIISRENAKNTLYLQMSSLKSEDTALFYCARGARASYFAMDYWGQGSSVTVSS VL: VIVMTQSHKFMSTSVGDRVSITCKASQDVTTAVAWYQQKPGQSPKLLIYWASTRHTGVPDRFTGSGSGTDYSLTISNVQTEDLAFYYCQQHFTTPLTFGAGTKLELK	0.101	no binding	no binding	no binding	no binding	no binding	no binding
